According to US20130190246A1:
Where no end group is shown, it is not given here. Side-chain parts run from the residue outwards. dermatan sulfate = dermatan sulfate, the glycan component of the peptidoglycan; BMPH = crosslinker coupling the Cys thiol to oxidized dermatan sulfate

How the values were obtained:
[1] = molecular target: collagen (type and supplier not stated; Examples 11 and 12); assay: SPR (Biacore 2000, CM-3 chip), collagen immobilized, peptide in flow at 100 µM to 1.5 µM
[2] = molecular target: Type I fibrillar collagen (Chronolog, Havertown, Pa.); assay: plate binding assay on fibrillar collagen, biotin label detected with streptavidin-HRP, saturation curve fit
[3] = molecular target: Type I fibrillar collagen (Chronolog, Havertown, Pa.); assay: plate assay on fibrillar collagen, biotin labeled peptidoglycan detected with streptavidin-HRP, Abs 450 nm
[4] = molecular target: Type I fibrillar collagen (Chronolog, Havertown, Pa.); assay: diffusion from fibrillar collagen coated plate at 37° C., loaded at 10 µM, biotin label detected with streptavidin-HRP

Kd [1] [nM]	Kd [2] [nM]	EC50 (read off the curve) [3] [nM]	amount remaining bound after 1 week of extensive rinsing (equivalent concentration) [4] [nM]	Binder
1200	–	–	–	RRANAALKAGELYKSILYGC [peptide … (SILY)]
–	24	20	10	RRANAALKAGELYKSILYGC([BMPH-dermatan sulfate]) (not fully specified (C-terminus); also: 18 SILY peptides per dermatan sulfate, 2 of them biotin labeled, biotin position not given here) [biotin labeled peptidoglycan DS-SILY18 (DS-SILY18-biotin)]
–	118	100	–	RRANAALKAGELYKSILYGC([BMPH-dermatan sulfate]) (not fully specified (C-terminus); also: 4 SILY peptides per dermatan sulfate, biotin label on every peptide, position not given here) [biotin labeled peptidoglycan DS-SILY4 (DS-SILY4-biotin)]
